The test system of this experiment is Human induced pluripotent stem cells (hiPSCs). The experiment can be described thus: RPE-specific markers expression in hiPSCs differentiated into RPE cells (RTqPCR; FACS). In kind it is cell-based. The procedure:
Day 0: overall undifferentiated and tight hiPSC morphology was confirmed to be at close to 100% confluency. Otherwise, the cells were fed once more with 4 ml prewarmed iPS Brew medium and instead differentiation was initiate the next day. KSR medium (4 ml needed per 6-well), PD0325901 (PD)/SB431542 (SB)/dorsomorphin (DM) aliquots, as well as Activin A were prepared and/or prewarmed. After thawing and thoroughly mixing all reagents, […] (1:1000 from 1 mM stock), […] (1:2000 from 10 mM stock), […] (1:2000 from 0.5 mM stock) and […] (1:400 from 10 μg/ml stock) were added to 4 ml KSR medium per confluent hiPSC culture well, after vigorously agitating culture plates and completely soaking off iPS Brew medium.
Days 1 and 2: media was prepared as above and old medium replaced on culture wells by 4 ml fresh differentiation medium per well, following vigorous agitation and complete media aspiration.
Day 3: KSR medium with Activin A only was prepared and old medium was replaced on culture wells by 4 ml fresh ActA-only differentiation medium per well, following vigorous agitation and complete media aspiration.
Day 4: fresh KSR+ActA differentiation medium was prepared and feed with 8 ml per well.
Second week: cells were fed daily with 4 ml per 6-well and 8 ml over the weekend.
Third and fourth weeks: no more small molecules were applied during the third and fourth weeks of differentiation. Only Activin A was added to basal media (either KSR or B27 medium) Activin A was added daily to prewarmed basal media, and old medium replaced on cells (1:100 thoroughly mixed).
Day 29 (week 5): newly coated dishes were prepared by coating 12-well (5 μl) or 6-well format (12 μl iM) with 4 x iMatrix-511 in PBS for 1 h at 37° C. KSR medium was prepared and prewarmed for splitting procedure. Differentiated cells were washed with PBS once (4 ml) or twice (2×2 ml), then 1 ml prewarmed TrypLE Se-lec was added. Cells were dissociated using a 1 ml pipette by pipetting up and down several times and results were checked under the microscope. Cell suspension was transferred to 15 ml tube and centrifuged at 300 g for 2 min. A portion of the cells was transferred into a 1.5 ml tube for downstream FACS and/or RT-qPCR analysis. Cells were resuspended in an appropriate amount of KSR medium and cell titer was determined using a Neubauer chamber. 400,000 cells per cm^2 were plated out in 6-well (with 4 ml KSR medium with or without Activin A24) or 12-well format (2 ml medium).
Samples to be analyzed by RT-qPCR were cells directly lysed from culture wells using RA1 buffer from the RNA isolation kit. […] RNA concentration was measured on NanoDrop monitoring A260/280 and A260/230 ratios. […]

B1: Activin A (protein, UniProt P08476 311-426, looked up)
Inhibin beta A chain: GLECDGKVNICCKKQFFVSFKDIGWNDWIIAPSGYHANYCEGECPSHIAGTSGSSLSFHSTVINHYRMRGHSPFANLKSCCVPTKLRPMSMLYYDDGQNIIKKDIQNMIVEECGCS
modifications: homodimer
notes: member of the TGFβ family of proteins; disulfide-linked homodimer (two beta-A chains)
For B1, the RPE gene expression result (Activin A treatment initiated after signaling inhibition (PSD then A) vs standard simultaneous protocol, FIG. 6) was “reduced RPE gene expression”. The “induction of RPE cell fate” value (RTqPCR (OTX2, MITF, PMEL), complete withdrawal of the three small molecules, FIG. 5) is reported as “insufficient for inducing RPE cell fate”. Also, the “induction of the RPE phenotype” value (RTqPCR of RPE-specific markers, non-treated vs Activin A only vs PSD+A, FIG. 2C) is reported as “not sufficient to induce the RPE phenotype”. Also, the RPE induction entry (titration of Activin A: concentration below 20 ng/ml or complete withdrawal, FIG. 7) is “inferior RPE induction”.

Source of the values: US20230365929A1, “METHOD OF DIFFERENTIATION OF PLURIPOTENT STEM CELLS TO RETINAL PIGMENT EPITHELIUM CELLS” (R.P. SCHERER TECHNOLOGIES, LLC, priority 2022, published 2023).
